Test results from article PMC6982540.

Target: His-PTP1B (residues 1–321), reversibly oxidized and phosphorylated on Ser50 (UniProt P18031)
Test: SPR

Chain of UniProt P18031 (P18031 1-321): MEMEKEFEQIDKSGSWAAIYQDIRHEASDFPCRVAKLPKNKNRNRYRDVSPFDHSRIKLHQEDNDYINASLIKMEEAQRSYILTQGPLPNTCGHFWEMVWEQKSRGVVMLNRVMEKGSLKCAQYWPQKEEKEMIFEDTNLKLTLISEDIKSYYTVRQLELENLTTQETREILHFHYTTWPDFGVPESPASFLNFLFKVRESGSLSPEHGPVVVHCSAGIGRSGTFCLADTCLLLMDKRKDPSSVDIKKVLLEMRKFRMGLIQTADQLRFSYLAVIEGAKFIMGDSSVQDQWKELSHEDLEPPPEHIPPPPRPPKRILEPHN

With “GST-14-3-3-ζ (from UniProt P63104 1-245) (natural protein)” the koff was 0.00458 s⁻¹.
